Data as given in article doi:10.64898/2025.12.30.697075.
“And” between values parts separate entries of the source, which are not always exact repeats. Identical values can stand only once.

Legend:
[1] = molecular target: pennycress (Thlaspi arvense) biotin carboxylase (BC) subunit of the plastid heteromeric acetyl-CoA carboxylase (Thlaspi arvense (field pennycress)); test: cryo-EM structure
[2] = molecular target: pennycress (Thlaspi arvense) biotin carboxylase (BC) subunit of the plastid heteromeric acetyl-CoA carboxylase (Thlaspi arvense (field pennycress)); test: cross-linking

pennycress (Thlaspi arvense) biotin carboxylase (BC) subunit of the plastid heteromeric acetyl-CoA carboxylase (enzyme)
stoichiometry N [1]: 2 and 4 and 6 | stoichiometry N [2]: 2 and 4
